Assay [1] addresses K18 fibril seeds (human) (UniProt P10636).
Assay [2] shares this target. The source holds these as a separate data set.
Assay [3] has as its target htau40 seeds (human) (UniProt P10636).
Assay [4] deals with AD tau filaments (in AD brain homogenate) (human (endogenous in AD brain tissue)).
In assay [5] the target is Atto633-labeled 3R MAP2 monomer (UniProt P11137). Kind of assay: fluorescence polarisation; fluorescence anisotropy; 100 nM Atto633-labeled monomer titrated with K18 seeds (0–20 μM monomer equivalents), equilibrated 16 h at 22 °C; one-site binding model; apparent KD, based on monomer equivalents of seeds, not seed concentrations.
In assay [6] the target is Atto633-labeled 4R MAP2 monomer (UniProt P11137). Described as above.
The target of assay [7] is Atto633-labeled K18 monomer (human) (UniProt P10636). The description is as above.

Here are results for three substances from article PMC10404690.

Chain of 4R MAP2 (P11137 other isoform, or with tags, fused parts or gaps): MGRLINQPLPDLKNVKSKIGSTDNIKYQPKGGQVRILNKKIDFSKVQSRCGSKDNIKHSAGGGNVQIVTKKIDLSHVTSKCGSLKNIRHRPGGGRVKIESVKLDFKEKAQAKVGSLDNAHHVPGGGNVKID
Chain of K18 fibril seeds (human) (P10636 561-689): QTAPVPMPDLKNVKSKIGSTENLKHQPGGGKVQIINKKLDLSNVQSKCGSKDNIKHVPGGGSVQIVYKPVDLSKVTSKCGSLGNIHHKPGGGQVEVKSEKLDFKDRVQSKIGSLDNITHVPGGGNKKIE
Chain of K18 fibril seeds (P10636 561-689): as above
Chain of htau40 seeds (human) (P10636 other isoform, or with tags, fused parts or gaps): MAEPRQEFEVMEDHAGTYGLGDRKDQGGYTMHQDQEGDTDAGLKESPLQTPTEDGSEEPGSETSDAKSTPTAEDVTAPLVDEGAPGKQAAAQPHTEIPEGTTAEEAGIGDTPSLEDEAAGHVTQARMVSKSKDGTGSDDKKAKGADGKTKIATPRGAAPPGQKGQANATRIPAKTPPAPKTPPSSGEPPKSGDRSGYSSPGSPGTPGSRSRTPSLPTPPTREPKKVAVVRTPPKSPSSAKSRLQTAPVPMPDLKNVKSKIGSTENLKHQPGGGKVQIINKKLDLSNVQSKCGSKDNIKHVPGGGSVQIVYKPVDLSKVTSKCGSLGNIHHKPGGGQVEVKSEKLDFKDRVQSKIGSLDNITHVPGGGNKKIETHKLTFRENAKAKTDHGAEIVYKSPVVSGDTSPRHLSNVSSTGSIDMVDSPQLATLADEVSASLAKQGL

In turn, “3R MAP2 (from UniProt P11137-4 362-490) (domain or fragment)” registered an IC50 of inhibition of K18-seeded aggregation of 10 μM K18 monomers (10% seeds, 6 h, 37 °C; sedimentation, SDS-PAGE, Coomassie; 12.5 nM-25 μM 3R MAP2); blocks recruitment of K18 monomers onto K18 seeds in assay [1] of 2200 nM. The percent of HEK293 cells expressing htau40P301S-EYFP that contain tau puncta 24 h after transduction of K18 seeds preincubated with 3R MAP2 (25% without MAP2) in assay [2] is 11 % of cells. Also, the tau fibril growth (10 μM htau40 monomers on 1% htau40 seeds, 21 h, 37 °C; sedimentation, SDS-PAGE) with 10 μM 3R MAP2, relative to the reaction without MAP2 set to 100% (% of growth without MAP2) in assay [3] is 56. This substance also showed an amplification of tau fibrils from AD brain homogenate (5 μM htau40 monomer, cycles of shaking and growth for 30 h; sedimentation, SDS-PAGE, densitometry) with 5 μM 3R MAP2 in assay [4] of more than 80 % reduction.
On to “4R MAP2 (from UniProt P11137-4 362-490) (domain or fragment)”, for which the IC50 of inhibition of K18-seeded aggregation of 10 μM K18 monomers (10% seeds, 6 h, 37 °C; sedimentation, SDS-PAGE, Coomassie; 12.5 nM-15 μM 4R MAP2); blocks recruitment of K18 monomers onto K18 seeds in assay [1] came to 1100 nM. Besides, the percent of HEK293 cells expressing htau40P301S-EYFP that contain tau puncta 24 h after transduction of K18 seeds preincubated with 4R MAP2 (25% without MAP2) in assay [2] was 6.4 % of cells. The substance also showed a tau fibril growth (10 μM htau40 monomers on 1% htau40 seeds, 21 h, 37 °C; sedimentation, SDS-PAGE) with 10 μM 4R MAP2, relative to the reaction without MAP2 set to 100% (% of growth without MAP2) in assay [3] of 25. For the same substance, the amplification of tau fibrils from AD brain homogenate (5 μM htau40 monomer, cycles of shaking and growth for 30 h; sedimentation, SDS-PAGE, densitometry) with 5 μM 4R MAP2 in assay [4] is more than 80 % reduction.
Turning to “K18 fibril seeds (from UniProt P10636-8 244-372)”, the results for the Kd in assay [5], in assay [6] and in assay [7] were 1600 nM, 1300 nM and 5400 nM, respectively.
